Molecular target: VraS-H6x (recombinant full-length histidine kinase VraS of Staphylococcus aureus with C-terminal H6x tag) (Staphylococcus aureus USA300-TCH1516)
Assay: SEC

Sequence of VraS-H6x (recombinant full-length histidine kinase VraS of Staphylococcus aureus with C-terminal H6x tag) (enzyme) (Q5HEN9 whole entry): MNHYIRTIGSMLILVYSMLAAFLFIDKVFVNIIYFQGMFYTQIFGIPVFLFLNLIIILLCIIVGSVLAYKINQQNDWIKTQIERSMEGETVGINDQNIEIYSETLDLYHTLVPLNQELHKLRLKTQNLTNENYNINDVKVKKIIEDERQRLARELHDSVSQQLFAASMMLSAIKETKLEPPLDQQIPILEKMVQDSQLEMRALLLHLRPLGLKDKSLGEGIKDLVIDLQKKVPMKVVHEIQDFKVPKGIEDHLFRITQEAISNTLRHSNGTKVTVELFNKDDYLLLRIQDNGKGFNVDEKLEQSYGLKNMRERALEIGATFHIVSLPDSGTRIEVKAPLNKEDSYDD

VraS-H6x (recombinant full-length histidine kinase VraS of Staphylococcus aureus with C-terminal H6x tag) (enzyme)
stoichiometry N: 2

Reference: paper doi:10.1101/2025.01.23.634444
